Here are results for 18 molecules from US20240025971A1 (ATRECA, published 2024).

B1: AB-009095 (antibody, V domains shown)
VH: EVQLVQSGAEVKKPGESLIISCTGSGYTFATFWITWVRQMPGKGLEWLGRIDPSDSYTNYNPSFQGHVTVSVDRSINTAYLELTSLKASDTAIYYCARQMYNTGWPIPNYSDYWGQGTLVTVSS
VL: QSALTQPPSASGSPGQSVTISCAGASTDVGVYNFVSWYQQHPGKAPKLIIFDVNKRPSGVPDRFSGSKSGNTASLTVSGLQAEDEADYYCSSYEVGNNFVFGTGTKVTVL
notes: human IgG1
B2: AB-009078 (antibody, V domains shown)
VH: QITLKESGPTLVKPTQTLTLTCTFSGFSLSTSGVGVGWIRQPPGKALEWLALIYWDDDKRYSPSLKSRLTITKDTSKNQVVLTMTNMDPVDTATYYCAHRPGDFWSGYYRYWGQGTLVTVSS
VL: not shown
notes: human IgG1
B3: AB-009665 (antibody, V domains shown)
VH: QVQLVQSGAEVKKPGASVKVSCKVSGYTLIELSMHWVRQAPGKGLEWMGGFDPEDGETIYAQKFQGRVTMTEDTSTDTAYMELSSLRSEDTAVYYCAAARVFGVATWFDPWGQGTLVTVSS
VL: QSVLTQPPSVSAAPGQKVTISCSGSSSNIGNNYVSWYQQLPGTAPKLLIYDNNKRPSGIPDRFSGSKSGTSATLGITGLQTGDEADYYCGTWDSSLSAGVFGGGTKLTVL
notes: human IgG1
B4: AB-009119 (antibody, V domains shown)
VH: EVQLVESGGGLVQPGGSLKLSCAASGFTFSGSAMHWVRQASGKGLEWVGRIRSKANSYATAYAASVKGRFTISRDDSKNTAYLQMNSLKTEDTAVYYCTRHGTTVNWGQGTLVTVSS
VL: not shown
notes: human IgG1
B5: AB-009627 (antibody, V domains shown)
VH: QVQLQQWGAGLLKPSETLSLTCAVYGGSFSGYYWSWIRQPPGKGLEWIGEINHSGSTNYNPSLKSRVTISVDTSKNQFSLKLSSVTAADTAVFYCARGGYSSSWYGEKYWFDPWGQGTLVTVSS
VL: QSALTQPRSVSGSPGQSVTISCTGTSSDVGGYNYVSWYQQHPGKAPKLMIYDVSKRPSGVPDRFSGSKSGNTASLTISGLQAEDEADYYCCSYAGSPYVFGTGTKVTVL
notes: human IgG1
B6: AB-009244 (antibody, V domains shown)
VH: EVQLVESGGGLVQPGGSLRLSCAASGFAFNTYGINWVRQAPGKGLEWVSFISSRSTTIHYADSVRGRFTISRDNAKNSLYLQMNNLRDEDTAVYYCARDLLIWFGETGAFDIWGQGTMVTVSS
VL: EVVMTQSPATLSVSSGERVTLSCRASQSVSNNLAWYQQKPGQAPRLLIYGASTRATGFPARFSGSGSGTEFTLTISSLQSEDFAVYYCQQYNIWPPGTFGQGTKLEIK
notes: human IgG1
B7: AB-009251 (antibody, V domains shown)
V domain 1: QVQLVQSGAEVKKPGASVKVSCKTSGYTFTTFYIHWVRQVPGQGLEWMGIINPDGGSTNYAQEFQARVTMTTDTSTSTAYMELSSLRFEDTAVFYCATSLGAPPGLSPRTGPQRRGPPGFDFWGQGTLITVSA
V domain 2: QSVLTQPPSVSGAPGQRVTISCTGSSSNIGAGYDVHWYQQLPGTAPKLLIFDNNNRPSGVPYRFSGSRSGTSASLAITGLQPEDEADYYCQSYDSSLSGRVFGGGTRVTVL
notes: human IgG1
B8: AB-009610 (antibody, V domains shown)
VH: QVQLVQSGAEVKKPGSSVKVSCKASGGTFSNYAISWVRQAPGQGLEWMGRIIPILGIANYAQKFQGRVTITADKSTSTAYMELSSLRSEDTAVYYCATTPYYYDSSGYYLDYWGQGTLVTVSS
VL: not shown
notes: human IgG1
B9: AB-010020 (antibody, V domains shown)
VH: QMQLVQSGPEVKKPGTSVKVSCKASGFTFTSSAVQWVRQARGQRLEWIGWIVVGSGNTNYAQKFQERVTITRDMSTSTAYMELSSLRSEDTAVYYCAAPACSSTSCYDGFDIWGQGTMVTVSS
VL: not shown
notes: human IgG1
B10: AB-010021 (antibody, V domains shown)
VH: B9 VH with P99V, A100Y, S103G, T104G, Y107L, G109A
VL: not shown
notes: human IgG1; also called AB-0010021
B11: AB-009666 (antibody, V domains shown)
VH: EVQLVESGGGLVQPGGSLRLSCAASGFTFSSYDMHWVRQATGKGLEWVSTIGTAGDTYYPGSVKGRFTISRENAKNSLYLQMNSLRAEDTAVYYCARVNYDSSGYPTYWYFDLWGRGTLVTVSS
VL: DIQMTQSPSSLSASVGDRVTITCRASQSISRYLNWYQQKPGKAPKLLIYAASSLQSGVPSRFSGSGSGTDFTLTISSLQPEDFATYNCQQSYSSPPWTFGQGTKVEIK
notes: human IgG1
B12: AB-009271 (antibody, V domains shown)
VH: EVQLVESGGGLIQPGGSLRLSCAASGFIVSSNYMSWVRQAPGKGLEWVSVIYSGGSTYYADSVKGRFTISRDNSKNTLYLQMNSLRAEDTAVYYCARDYGDFYFDYWGQGTLVTVSS
VL: EIVMTQSPATLSVSPGERATLSCRASQSVSSNLAWYQQKPGQAPRLLIYGASTRATGIPARFSGSGSGTEFTLTISSLQSEDFAVYYCQQYYNWPRTFGQGTKVEIK
notes: human IgG1
B13: AB-009613 (antibody, V domains shown)
VH: B12 VH with I28T
VL: not shown
notes: human IgG1
B14: AB-009080 (antibody, V domains shown)
VH: QVQLQQWGAGLLKPSETLSLTCAVYGGSFSGYYWSWIRQPPGKGLEWIGEINHSGSTNYNPSLKSRVTISVDTSKNQFSLKLSSVTAADTAVYYCARGLPVTTFYYYYYGMDVWGQGTTVTVSS
VL: not shown
notes: human IgG1
B15: AB-009106 (antibody, V domains shown)
VH: QVQLAQSGAEVKRPGASVKVSCKASGFDLTTYGVGWVRQAPGQGLEWMGWISGSSGDTHYAQQFQDRVTMTTDTPTSTAYMELRSLRSDDTAVYYCVRENIAHYGSRTFLVRYYRGMDVWGQGTTVTVAS
VL: QSALTQPASVSGSPGQSITITCTGSSSDIGGFDFVSWYQQYPGKAPKLVISEVTNRPSGVSIRFSGSKSGNTASLTISGLQAEDEADYYCSSYASSYPTTNTRVFGTGTKVTVL
notes: human IgG1
B16: AB-009110 (antibody, V domains shown)
VH: QVQLVQSGAEVKEPGASVKVSCNASGYIFTSYGISWVRQAPGQGLEWVGWISGNNGNTNYAQKFQGRVTLTTDTSTSTAYLELRSLTSADTGVYFCARARLPSAYWGPGTLLTVSS
VL: EILLTQSPATLSVSPGERGSLSCRASQSVGTNLAWYQQKPGQAPRLLIYGASARATGIPARFSGSGSGTEFTLTISSLQSEDFGVYYCQQYNDWPPWTFGQGTKVEIK
notes: human IgG1
B17: AB-009226 (antibody, V domains shown)
VH: not shown
VL: QSALTQPASVSGSPGQSITISCTGTSSDVGGYNYVSWYQQHPGKAPKLMIYEVSNRPSGVSNRFSGSKSGNTASLTISGLQAEDEADYYCSSYTSSSTLYVFGTGTKVTVL
notes: human IgG1
B18: AB-009083 (antibody, V domains shown)
VH: EVHLLESGGGLVQPGGSLTLTCAASGFSFGNYVMGWVRQAPGKGLEWVSSIFGSGANPHYGGSVKGRFTISRDNSQNTLFLQMDSLTAEDTAVYYCARDGGTMVGGIITGGFNYFDSWGQGTLVTVSS
VL: EIVLTQSPASLSLSPGGWATLSCRASRSIGNSLAWYQQRPGQAPRLLIYDASNRATGIPARFSGSGSGTDFTLTISSLEPEDFAIYYCQQRNSWPPLYTFGQGTKLEIK
notes: human IgG1

Numbering of substitutions follows the chain as printed.

In one assay the target is T1, SARS-CoV-2 Receptor Binding Domain (RBD) (SARS-CoV-2, UniProt P0DTC2 319-541).
T1 construct: also called RBD protein
In words: BLI. For orientation: BLI is a label-free optical method that tracks binding on a fibre tip over time.
For B1, the binding result is given as “no binding (tested: 300 nM)”.

As for B2, the binding result is on record as “no binding (tested: 300 nM)”.

For B3, the binding result is “no binding (tested: 300 nM)”.

Take B4: the binding result is listed as “no binding (tested: 300 nM)”.

For another assay, the target named is T2, SARS-CoV-2 S1 protein (SARS-CoV-2, UniProt P0DTC2 16-685).
T2 construct: domain: S1 protein; also called S1 monomer
In words: BLI.
Turning to B1, the binding result is given as “no binding (tested: 300 nM)”.

For B2, the binding result is “no binding (tested: 300 nM)”.

For the molecule B3, the binding result was “no binding (tested: 300 nM)”.

For the molecule B5, the binding result is listed as “no binding (tested: 300 nM)”.

Turning to B6, the binding result is reported as “no binding (tested: 300 nM)”.

In the case of B4, the binding result was “no binding (tested: 300 nM)”.

The target of the next assay is T3, SARS-CoV-2 S2 protein (SARS-CoV-2, UniProt P0DTC2 686-1213).
T3 construct: domain: S2 protein; also called S2 monomer
The assay can be described thus: BLI.
With B7, the binding result is recorded as “no binding (tested: 300 nM)”.

As to B8, the binding result is on record as “no binding (tested: 300 nM)”.

For B3, the binding result is listed as “no binding (tested: 300 nM)”.

As to B6, the binding result was “no binding (tested: 300 nM)”.

Regarding B9, the binding result is listed as “no binding (tested: 300 nM)”.

As to B10, the binding result is “no binding (tested: 300 nM)”.

Consider B11, for which the binding result is reported as “no binding (tested: 300 nM)”.

As for B12, the binding result is on record as “no binding (tested: 300 nM)”.

Take B13: the binding result is “no binding (tested: 300 nM)”.

Another assay has as its target SARS-CoV-2 Nucleocapsid (N) protein (SARS-CoV-2, UniProt P0DTC9 1-419). In words: BLI.
For the molecule B7, the binding result was “no binding (tested: 300 nM)”.

As for B8, the binding result is “no binding (tested: 300 nM)”.

In the case of B5, the binding result is recorded as “no binding (tested: 300 nM)”.

As to B6, the binding result is given as “no binding (tested: 300 nM)”.

B11: the binding result is given as “no binding (tested: 300 nM)”.

On to B12, for which the binding result is reported as “no binding (tested: 300 nM)”.

On to B13, for which the binding result was “no binding (tested: 300 nM)”.

A further assay addresses SARS-CoV-2 Envelope (E) protein (SARS-CoV-2, UniProt P0DTC4 1-75). In words: ELISA. For orientation: In an ELISA, binding on a coated surface is turned into a signal by an enzyme label.
Regarding B8, the binding result is “no binding (tested: 2-fold over hIgG1 background)”.

As for B5, the binding result is “no binding (tested: 2-fold over hIgG1 background)”.

Turning to B11, the binding result is “no binding (tested: 2-fold over hIgG1 background)”.

For the molecule B12, the binding result is recorded as “no binding (tested: 2-fold over hIgG1 background)”.

On to B13, for which the binding result is given as “no binding (tested: 2-fold over hIgG1 background)”.

For another assay, the target named is SARS-CoV-1 spike (pseudovirus) (SARS-CoV-1, UniProt P59594 14-1255). The assay can be described thus: cell-based or functional assay.
Consider B8, for which the “Pseudovirus Neutralization” value is more than 50 µg/mL.

As for B9, the “Pseudovirus Neutralization” value is more than 50 µg/mL.

Consider B10, for which the “Pseudovirus Neutralization” value was more than 50 µg/mL.

Take B12: the “Pseudovirus Neutralization” value is more than 50 µg/mL.

As to B13, the “Pseudovirus Neutralization” value is more than 50 µg/mL.

Another assay concerns the target SARS-CoV-2 Wuhan-1 full-length Spike protein (SARS-CoV-2, UniProt P0DTC2 14-1273). In words: cell-based or functional assay.
Take B8: the “Pseudovirus Neutralization” value is 6.77 µg/mL.

For B9, the “Pseudovirus Neutralization” value was 0.004 µg/mL.

Regarding B10, the “Pseudovirus Neutralization” value amounted to 1.56 µg/mL.

As for B12, the “Pseudovirus Neutralization” value was found to be 0.058 µg/mL.

As for B13, the “Pseudovirus Neutralization” value was 1.53 µg/mL.

A further assay concerns the target T4, SARS-CoV-2 Spike (S) trimer (SARS-CoV-2, UniProt P0DTC2 14-1208).
T4 construct: also called Spike trimer
In words: ELISA, S trimer coated, 1:50 dilution.
Turning to B7, the “Optical Density (OD; 450 nm)” value is 0.886 OD450.

In the case of B8, the “Optical Density (OD; 450 nm)” value came out at 2.02 OD450.

Take B14: the “Optical Density (OD; 450 nm)” value is 0.166 OD450.

Take B3: the “Optical Density (OD; 450 nm)” value was found to be 1.38 OD450.

As for B15, the “Optical Density (OD; 450 nm)” value amounted to 0.1 OD450.

In the case of B11, the “Optical Density (OD; 450 nm)” value came out at 2.76 OD450.

B16: the “Optical Density (OD; 450 nm)” value was determined as 0.081 OD450.

As to B17, the “Optical Density (OD; 450 nm)” value was determined as 2.33 OD450.

In the case of B12, the “Optical Density (OD; 450 nm)” value was 2.94 OD450.

As to B13, the “Optical Density (OD; 450 nm)” value amounted to 2.47 OD450.

Consider B18, for which the “Optical Density (OD; 450 nm)” value came out at 0.249 OD450.
